Experimental data from patent US20050049299A1, “Selective inhibitors of stat-3 activation and uses thereof” (priority 2003, published 2005).

How the values were obtained:
MM.1S and MM.1R cells = assay: TNF- and LT-induced proliferation of MM.1S and MM.1R cells (thymidine incorporation); type: cell-based, human; settings: serum starved 12 h, 48 hours serum-free
Experimental: (§1) The cell proliferation assay was performed as described below. Results are shown as mean (±s.d. indicated by error bar) of percent [^3H] thymidine incorporation of triplicate cultures compared to the untreated control. […] Cells were treated with IL-6 for 10 minutes as a positive control for STAT3 phosphorylation. Thirty micrograms of whole cell extract was were resolved on 7.5% SDS-PAGE, electrotransferred to a nitrocellulose membrane, and probed for phosphorylated-STAT3 (upper panel), stripped, and reprobed for STAT3 (lower panel).
The antiproliferative effects of curcumin were also monitored by the thymidine incorporation method. For this, 5000 cells in 100 μl medium were cultured in triplicate in 96-well plates in the presence or absence of curcumin for 24 h. Six hours before the completion of experiment, cells were pulse treated with 0.5 μCi [^3H]thymidine, and the uptake of [^3H]thymidine was monitored using a Matrix-9600 β-counter (Packard Instruments, Downers Grove, Ill.).
(§2) MM.1S and MM.1R cells were serum starved for 12 h and then treated with TNF or lymphotoxin in the serum free medium.

STAT3 phosphorylation = STAT3 phosphorylation in MM.1S and MM.1R cells after TNF, LT or IL-6 (Western blot); type: cell-based, human; settings: 1 nM TNF or LT
Experimental: as §1
For detection of STAT proteins, whole-cell extracts were prepared by lysing the curcumin-treated cells in lysis buffer (20 mM Tris, pH 7.4, 250 mM NaCl, 2 mM EDTA, pH 8.0, 0.1% Triton-X100, 0.01 mg/ml aprotinin, 0.005 mg/ml leupeptin, 0.4 mM PMSF, and 4 mM NaVO4). Lysates were then spun at 14000 rpm for 10 min to remove insoluble material, and resolved on a 7.5% gel. After electrophoresis, the proteins were electrotransferred to a nitrocellulose membrane, blocked with 5% nonfat milk, and probed with anti-STAT antibodies (1:1000) overnight at 4° C. The blot was washed, exposed to HRP-conjugated secondary antibodies for 1 h, and finally examined by chemiluminescence (ECL, Amersham Pharmacia Biotech. Arlington Heights, Ill.).
as §2

B1: lymphotoxin: bacteria-derived recombinant human LT provided by Genentech (protein, UniProt P01374 35-205, looked up)
Lymphotoxin-alpha: LPGVGLTPSAAQTARQHPKMHLAHSTLKPAAHLIGDPSKQNSLLWRANTDRAFLQDGFSLSNNSLLVPTSGIYFVYSQVVFSGKAYSPKATSSPLYLAHEVQLFSSQYPFHVPLLSSQKMVYPGLQEPWLHSMYHGAAFQLTQGDQLSTHTDGIPHLVLSPSTVFFGAFAL
MM.1S and MM.1R cells
  proliferative effects in MM.1S and MM.1R cells: more pronounced in dex-resistant MM.1R cells than in dex-sensitive MM.1S cells
STAT3 phosphorylation
  induction of STAT3 phosphorylation: neither TNF nor lymphotoxin induced STAT3 phosphorylation
